US20080207449A1 (CROPDESIGN N V, published 2008)

Tests used:
[1] = biological target: pGBTE2Fb 1-127: GAL4 DNA-binding domain fusion of AtE2Fb amino acids 1-127 (Arabidopsis); test: yeast two-hybrid, growth on His- minimal medium; empty prey vector control; legend: -, no interaction
[2] = biological target: T1, pGBTE2Fa226-356: GAL4 DNA-binding domain fusion of AtE2Fa amino acids 226-356 (Arabidopsis); test: as above
T1 construct: also called E2F5 dimerisation domain; E2Fa (=E2F5) dimerization domain

[3] = biological target: T2, pGBT DPa 1-292: GAL4 DNA-binding domain fusion of AtDPa 1-292 (Arabidopsis thaliana); test: as above
T2 construct: its construction is not described

[4] = biological target: T3, pGBT DPb 1-385: GAL4 DNA-binding domain fusion of AtDPb 1-385 (Arabidopsis thaliana); test: as above
T3 construct: its construction is not described

[5] = biological target: T4, pGBTE2Fb-Rb: GAL4 DNA-binding domain fusion of AtE2Fb amino acids 1-385 (lacking the Rb-binding domain) (Arabidopsis); test: as above
T4 construct: also called E2F3 N-terminal; E2Fb (=E2F3) N-terminal domain

[6] = biological target: T5, empty pGBT9 (GAL4 DNA-binding domain alone) (UniProt P04386 1-147); test: yeast two-hybrid, growth on His- minimal medium; both vectors empty; legend: -, no interaction
T5 construct: empty bait vector, control for specificity; also called pBGT9
Experimental: Different combinations between bait (pGBTE2Fa226-356, pGBTE2Fb-Rb, or pGBTE2Fb 1-127, SEQ ID NO:207) and prey constructs were transformed into yeast cells and assayed for their ability to grow on His⁻ minimal media after 3 days of incubation at 30° C. Bait plasmids co-transformed with empty pAD-GAL424 and prey plasmids co-transformed with empty pGBT9 were assessed along as controls for the specificity of the interaction.
Different combinations between AtE2Fs bait and AtDPs prey constructs were tested for growth on His minimal media. −, no interaction; +, positive interaction; NT, not tested.

Measured: binding result

B1: empty pAD-GAL424 (GAL4 transactivation domain alone) (other, UniProt P04386 768-881, looked up)
chain: ANFNQSGNIADSSLSFTFTNSSNGPNLITTQTNSQALSQPIASSNVHDNFMNNEITASKIDDGNNSKPLSPGWTDQTAYNAFGITTGMFNTTTMDDVYNYLFDDEDTPPNPKKE
notes: empty prey vector, control for specificity
no binding: all assays above
